The test addresses full-length (FL) UBQLN2 (UniProt Q9UHD9). Put plainly: NMR titration.

For the substance “ubiquitin (Ub) (from UniProt P0CG48 1-76) (natural protein; other documents disagree on this pair)”, the equilibrium dissociation constant (Kd) (commonly the free concentration of one partner at which half of the binding sites on the other are occupied at equilibrium, for simple one-to-one binding) is 3 µM.

These data come from paper PMC9346500.
